Results published in patent publication US20260072038A1.

Assays:
[1] = target: Human TNFa (recombinant) (human) (UniProt P01375); test: SPR (Biacore), average of three BYL batches, TNFa as analyte
[2] = target: huCD64/human FcRI (R&D Systems 1257FC) (human) (UniProt P12314); test: SPR (Biacore), average of three BYL batches, CD64 as analyte
[3] = target: huCD64/human FcRI (R&D Systems 1257FC) (human) (UniProt P12314); test: SPR (Biacore), antibody captured on Protein A CM5 chip, CD64 as analyte
[4] = target: Human TNFa (recombinant) (human) (UniProt P01375); test: SPR (Biacore), antibody captured on Protein A CM5 chip, TNFa as analyte

Substance | Kd [1] [nM] | Kd [2] [nM] | Kd [3] [nM] | Kd [4] [nM] | koff [4] [s⁻¹] | kon [4] [M⁻¹ s⁻¹] | koff [3] [s⁻¹] | kon [3] [M⁻¹ s⁻¹]
BYL-mAb (adalimumab produced in BYL, average of the three batches) (antibody) | 0.134 | 0.353 |  |  |  |  |  | 
Humira CF DAK (adalimumab produced in BYL/ALiCE, batch DAK) (antibody) |  |  | 0.346 |  |  |  |  | 
Humira CF DB3 (adalimumab produced in BYL/ALiCE, batch DB3) (antibody) |  |  | 0.367 | 0.122 | 5.83e-05 | 478000 | 0.000252 | 686000

Results, then the substance that gave them:

Kd [1] [nM] | Kd [2] [nM] | Kd [3] [nM] | Kd [4] [nM] | koff [4] [s⁻¹] | kon [4] [M⁻¹ s⁻¹] | koff [3] [s⁻¹] | kon [3] [M⁻¹ s⁻¹] | Substance
 |  | 0.346 |  |  |  |  |  | Humira CF CHJ (adalimumab produced in BYL/ALiCE, batch CHJ) (antibody)
 |  | 0.158 | 0.185 | 8.37e-05 | 453000 | 0.000152 | 959000 | Reference IgG Adalinumab (Humira) (ABIN5668145), commercial adalimumab reference product expressed from CHO cells (antibody)
